T1: Human CD39 antigen (Homo sapiens, UniProt P49961)
T1 sequence (P49961 1-510): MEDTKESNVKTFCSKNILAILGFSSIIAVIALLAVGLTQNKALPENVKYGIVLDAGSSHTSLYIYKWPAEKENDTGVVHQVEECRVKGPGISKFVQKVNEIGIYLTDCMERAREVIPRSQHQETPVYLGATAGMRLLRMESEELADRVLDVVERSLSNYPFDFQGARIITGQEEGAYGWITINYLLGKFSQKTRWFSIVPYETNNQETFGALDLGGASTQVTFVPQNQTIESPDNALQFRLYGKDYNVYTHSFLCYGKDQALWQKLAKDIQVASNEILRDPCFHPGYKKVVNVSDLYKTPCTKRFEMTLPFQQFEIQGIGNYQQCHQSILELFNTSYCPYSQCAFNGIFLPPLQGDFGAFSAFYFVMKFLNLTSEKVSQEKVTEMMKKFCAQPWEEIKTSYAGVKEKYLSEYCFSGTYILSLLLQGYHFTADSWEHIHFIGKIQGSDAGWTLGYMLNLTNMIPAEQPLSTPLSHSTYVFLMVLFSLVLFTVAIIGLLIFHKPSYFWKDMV

T2: human CD39 (Homo sapiens, UniProt P49961)
T2 sequence (P49961 1-510): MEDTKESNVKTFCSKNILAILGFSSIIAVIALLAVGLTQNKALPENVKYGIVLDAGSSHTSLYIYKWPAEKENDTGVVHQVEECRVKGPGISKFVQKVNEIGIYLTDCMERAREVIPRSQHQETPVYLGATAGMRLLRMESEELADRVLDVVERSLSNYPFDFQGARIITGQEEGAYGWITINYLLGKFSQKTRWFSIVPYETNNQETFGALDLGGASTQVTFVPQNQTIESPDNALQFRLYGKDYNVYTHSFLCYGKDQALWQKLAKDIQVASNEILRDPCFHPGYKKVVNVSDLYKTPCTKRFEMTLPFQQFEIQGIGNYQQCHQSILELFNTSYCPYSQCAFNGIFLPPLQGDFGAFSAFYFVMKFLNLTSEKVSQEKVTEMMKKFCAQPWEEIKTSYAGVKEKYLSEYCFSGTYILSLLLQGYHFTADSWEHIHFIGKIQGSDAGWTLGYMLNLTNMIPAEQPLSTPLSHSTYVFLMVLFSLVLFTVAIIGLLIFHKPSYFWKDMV


What was measured:
Human CD39 antigen = target: T1, Human CD39 antigen; assay: affinity by surface plasmon resonance (SPR) analysis; conditions: Biacore 8K, 1:1 binding model
Method: Kinetics of each antibody against their target antigen were measured using Biacore 8K (Cytiva). Each antibody to be measured was immobilized on a sensor chip (CM5) using a Mouse Antibody Capture Kit, type 2 (Cytiva, 29215281) for mouse antibodies and a Human Antibody Capture Kit, Type 2 (Cytiva, 26234600) for chimeric and humanized antibodies, respectively. Human CD39 antigen was subjected to 4-step dilution from […] to prepare each solution, the contact time was set to 120 seconds, the dissociation time was set to 600 seconds, and the flow rate was set to 30 μl/min. Under these conditions, HBS-EP+ was used as the running buffer, and each sample was then analyzed using the 1:1 binding model of multi-cycle kinetics.

human CD39 [1] = target: T2, human CD39; assay: CD39 binding analysis (FCM) using human CD39-overexpressing cells; conditions: 293T-hCD39 or Jurkat-hCD39 cells
Method: 3.1 CD39 binding analysis (FCM analysis) (using human CD39) Binding to target antigen-expressing cells was analyzed by FCM analysis using human CD39-overexpressing cells. The human CD39-overexpressing cells were generated using a lentiviral vector system (OriGene, PS100069). Lentiviral particles carrying the human CD39 gene (Gene ID: 953) as the target gene together with the puromycin resistance gene were generated and used to infect HEK293T or Jurkat cells therewith. Then, the cells were cultured in the presence of puromycin. HEK293T or Jurkat cells ([…] or Jurkat-hCD39) in which the target gene was integrated into the genome and which became positive for human CD39 were collected and used for FCM analysis. Test or isotype control antibodies at a final concentration of 2 μg/mL or at the concentrations indicated in the figure were reacted with 1×10^5 cells for 15 minutes at 4° C., followed by washing twice with 0.5% BSA, 2 mM EDTA, and D-PBS. After washing, a fluorescent-labeled secondary antibody (anti-human IgG Fc, HP6017) was added, and the cells were stained at 4° C. for 15 minutes under light-shielded conditions, followed by washing twice in a similar manner. After addition of 7AAD (BioLegend, 420404), fluorescence intensity was measured using a flow cytometer (FACSVerse, BD). Antibody binding was evaluated based on the fluorescence intensity obtained.

Cynomolgus monkey CD39 = assay: CD39 binding analysis (FCM) using Cynomolgus monkey CD39-overexpressing cells; conditions: 293T-cynoCD39 cells, 2 μg/ml antibody
Method: Binding to target antigen-expressing cells was analyzed using Cynomolgus monkey CD39-overexpressing cells. This analysis was used to check cross-reactivity. The Cynomolgus monkey CD39-overexpressing cells were generated using a lentiviral vector system (OriGene, PS100069). Lentiviral particles carrying the Cynomolgus monkey CD39 gene (Gene ID: 102132860) as the target gene together with the puromycin resistance gene were generated and used to infect HEK293T cells therewith. Then, the cells were cultured in the presence of puromycin. HEK293T cells (293T-cynoCD39) in which the target gene was integrated into the genome and which became positive for Cynomolgus monkey CD39 were collected and used for FCM analysis. The cells were reacted with 2 μg/ml test antibody or isotype control antibody, stained with a fluorescence-labeled secondary antibody, and evaluated for antibody binding based on the fluorescence intensity obtained by flow cytometry analysis.

human CD39 [2] = target: T2, human CD39; assay: activity to inhibit CD39 enzyme (ATP hydrolysis by CD39-expressing cells, CellTiter-Glo); assay type: cell-based; design: CD39^hi-expressing human melanoma cell line SK-MEL-28 (ATCC, HTB-72) or human ovarian adenocarcinoma cell line OAW-42; endogenous in cells; host or cells: SK-MEL-28 (ATCC, HTB-72) or OAW-42 (CLS, 300304); conditions: SK-MEL-28 or OAW-42 cells, ATP 10 μM
Method: Two thousand SK-MEL-28 cells (ATCC, HTB-72), a CD39′-expressing line, suspended in 50 μl EMEM (Fujifilm, 055-08975) were seeded onto a 96-well V-bottom plate and incubated at 37° C. for 30 minutes with 150 μl of culture supernatant of single B cells. The cells were washed once with DPBS (Nacalai Tesque, 14249-24), then 100 μl of 5 μM ATP was added per well, and the mixture was incubated at 20° C. for 30 minutes. After centrifugation, 50 μl of the supernatant was separated, 50 μl CellTiter-Glo (Promega, G9243) was added and stirred, and after incubation at room temperature for 10 min, the amount of ATP was measured by chemiluminescence while using a microplate reader. The ability of B cell culture supernatant to inhibit CD39-mediated ATP hydrolysis was evaluated based on the amount of residual ATP.
The antibodies obtained in the above experiments were used to measure activity to inhibit CD39 enzyme by using the following procedure. […] After centrifugation, 50 μl of the supernatant was separated, 50 μl CellTiter-Glo was added and stirred, and after incubation at room temperature for 10 minutes, the level of chemiluminescence was measured using a microplate reader. Based on the amount of ATP consumed by SK-MEL-28 or OAW-42 cells, the ability of the antibody to inhibit CD39-mediated ATP hydrolysis was evaluated. […]

[3] = test system: human lung cancer cell line NCI-H292; assay: anti-tumor activity: NCI-H292 growth with stimulated PBMCs and ATP (IncuCyte); assay type: cell-based; conditions: NCI-H292 with PBMCs E/T 2, ATP 500 μM
Method: The human lung cancer cell line NCI-H292 having red fluorescent protein (RFP) was seeded on a 96-well plate and cultured overnight. The next day, after removal of the medium, IL-2 (Miltenyi, 130-097-745) at a final concentration of 30 IU as suspended in X-VIVO-15™ medium (Lonza, 04-418Q) and an anti-human CD39 antibody or isotype control antibody at a final concentration of 0.3 to 100 μg/mL were added and the mixture was incubated at 37° C. for 30 minutes. Then, PBMCs from healthy volunteers stimulated with Dynabeads™ Human T-Activator CD3/CD28 (VERITAS, DB11131) for 10 days were added at an E/T ratio of 2 and the mixture was incubated at 37° C. for 30 minutes. […] This made it possible to evaluate the anti-tumor activity of the antibody due to its ability to promote the cytotoxic activity of PBMCs.

Molecule | affinity for human CD39 (KD) (Human CD39 antigen) | affinity for human CD39 on the cell surface (human CD39 [1]) | binding to monkey CD39 (Cynomolgus monkey CD39) | CD39 inhibitory activity (human CD39 [2]) | growth rate of cancer cells [3]
P4_sc: anti-CD39 scFvFc (Fc silent) from phage display (antibody, V domains shown, left off: another chain or arm of the molecule; a dimerising Fc or GST; small tags and cut ends, anti-CD39 scFvFc (Fc silent) from phage display) VH: QVQLKESGPSLVQPSQSLSITCTVSGFSLTNYGVHWVRQSPGKGLEWLGVILRRGSTDYNAAFMSRLSITKDNSKSQVFFKMNSLQADDTAIYYCAKTAVVAGDYFDYWGQGTTLTVSS VL: DIVMTQSHKFMSTSVGDRVSVTCKASQNVGTNVAWYQQKPGQSPKALIYSASYRYSGVPDRFTGSGSGTDFTLTISNVQSEDLAEYFCQQYNSYPLTFGTGTKLEIK | favorable affinity | favorable affinity | bound to monkey CD39 | activity to inhibit human CD39 | 
HuP4_IB_sc: humanized scFvFc obtained by humanizing P4_sc (antibody, V domains shown, left off: another chain or arm of the molecule; a dimerising Fc or GST; small tags and cut ends, humanized scFvFc obtained by humanizing P4_sc) VH: QVQLLESGPELVKPSATLSITCTVSGFSLTNYGVHWIRQAPGKGLEWLGVILRRGSTDYNAAFMSRFTISKDNSKNQVYFKLRSVTAEDTAVYYCAKTAVVAGDYFDYWGQGTMVTVSS VL: DIQMTQSHSTLSLSVGDRVTITCKASQNVGTNVAWYQQKPGQPPKALIYSASYRYSGVPSRFSGSGSGTDFTLTISSVQAEDVAVYYCQQYNSYPLTFGPGTKLEIK |  |  |  | favorable CD39 inhibitory activity | 
T-31414h1lala: anti-CD39 antibody with variable regions described in US2019/0062448, IgG1-lala constant region (antibody, V domains shown, IgG1 LALA constant regions; T-31414 VH; T-31414 VL, anti-CD39 antibody with variable regions described in US2019/0062448, IgG1-lala constant region) VH: QVQLVQSGAEVKKPGASVKVSCKASGYTFKSYEMHWVRQAPGQGLEWMGRINPSVGSTWYAQKFQGRVIMIRDTSTSTVYMELSSLRSEDTAVYYCARGKREGGTEYLRNWGQGTLVTVSS VL: EIVLIQSPGILSLSPGERATLSCRASQSVSSSYLAWYQQKPGQAPRLLIYGASSRATGIPDRFSGSGSGTDFTLTISRLEPEDFAVYYCQQYHSYITFGGGTKVEIK |  |  |  |  | approximately 0.9
